Results: patent US20080125354A1 (FLORIDA ATLANTIC UNIVERSITY, published 2008)

Experiments:
MMP-13 (collagenase 3) = MMP-13 (collagenase 3) (UniProt P45452 20-471, limits assumed); assay: cell-based or functional assay
[1] = biological target: MMP-8 (neutrophil collagenase, collagenase 2) (UniProt P22894 21-467, limits assumed); assay: cell-based or functional assay
Sequence of MMP-8 (neutrophil collagenase, collagenase 2) (P22894 21-467 limits assumed): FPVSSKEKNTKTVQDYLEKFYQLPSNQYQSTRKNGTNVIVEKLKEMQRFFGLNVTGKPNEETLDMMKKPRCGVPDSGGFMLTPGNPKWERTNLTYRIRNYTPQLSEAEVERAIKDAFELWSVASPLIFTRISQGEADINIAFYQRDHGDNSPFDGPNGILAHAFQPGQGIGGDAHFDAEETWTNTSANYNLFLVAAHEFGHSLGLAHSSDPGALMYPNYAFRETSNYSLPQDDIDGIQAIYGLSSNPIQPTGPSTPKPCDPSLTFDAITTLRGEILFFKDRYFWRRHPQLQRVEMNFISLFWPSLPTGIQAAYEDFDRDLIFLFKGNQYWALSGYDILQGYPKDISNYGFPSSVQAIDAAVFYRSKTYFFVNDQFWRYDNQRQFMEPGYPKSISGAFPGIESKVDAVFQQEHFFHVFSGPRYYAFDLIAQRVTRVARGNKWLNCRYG

Binder | IC50, inhibition of enzyme activity (fluorogenic substrate) (MMP-13 (collagenase 3)) [µM] | IC50, inhibition of enzyme activity (fluorogenic substrate) [1] [µM]
phosphinate-containing triple-helical peptide-amphiphile f3, C6-(Gly-Pro-Hyp)5-Gly-Pro-Pro-[Gly~Val]-Val-Gly-Glu-Gln-(Gly-Pro-Hyp)5-NH2 (N-terminal hexanoic acid (C6); Hyp (4-hydroxyproline) at 3, 6, 9, 12, 15, 27, 30, 33, 36, 39 (written P in letters); Gly19-Val20 peptide bond replaced by phosphinate psi{PO2H-CH2}; hypothesised phosphino Gly-(D)Val analog; C-terminal amide) peptide: not shown | ~10 | ~50
phosphinate-containing triple-helical peptide-amphiphile f4, C6-(Gly-Pro-Hyp)5-Gly-Pro-Pro-[Gly~Val]-Val-Gly-Glu-Gln-(Gly-Pro-Hyp)5-NH2 (N-terminal hexanoic acid (C6); Hyp (4-hydroxyproline) at 3, 6, 9, 12, 15, 27, 30, 33, 36, 39 (written P in letters); Gly19-Val20 peptide bond replaced by phosphinate psi{PO2H-CH2}; hypothesised phosphino Gly-(L)Val analog; C-terminal amide, One of two RP-HPLC-separated diastereomers of the C6-lipidated peptide; Triple helix of three identical strands by self-assembly; also called Peptide-amphiphile 2; peptide-amphiphile mimic) peptide: not shown | ~10 | ~50
